Laboratory results taken from the RNAGym collection of RNA variant scans (doi:10.1093/nar/gkz1192).

B1: CPEB3 Ribozyme (parent)
chain: UAACAGGGGGCCACAGCAGAAGCGUUCACGUCGCAGCCCCUGUCAGAUUCUGGUGAAUCUGCGAAUUCUGCUGUAUAUCUC

Variants of: B1
Assay: self-cleavage, relative activity (ratio to wild type); higher = more cleavage; in vitro, sequencing
Method in brief: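 Barcoded CPEB3 ribozyme mutants, produced by rounds of error-prone PCR, self-cleaved while being transcribed with T7 RNA polymerase for 5 hours at 37°C and during a subsequent 15 min DNase I step before EDTA was added. Sequencing of template-switched cDNA on Illumina gave cleaved and total reads, and DNA sequencing assigned barcodes to variants. Each variant's relative activity is its cleaved/total read fraction divided by the unmutated ribozyme's fraction, averaged across three batches. A variant needed a minimum of 5 reads.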

Point of comparison: U43A U58C, self-cleavage 0.67. Against it:
- U43A A77G — higher, 1.2
- U43A A77C — higher, 1.18
- U43A A77U — higher, 1.23
- C44G A45G — lower, 0.34
- C44G A45U — lower, 0.13
- U43C A64G — lower, 0.51
- U43C A64U — lower, 0.29
- C44G A77G — lower, 0.62
- U43C U74A — higher, 0.85
- U43C U74C — higher, 0.89
- U43C U74G — higher, 0.86
- U43C A56U — lower, 0.26
- U43C A56C — lower, 0.18
- U43C A56G — lower, 0.33
- C44A U54A — lower, 0.59
- C44A U54C — lower, 0.36
- C44A U78C — lower, 0.38
- C44A U78A — lower, 0.49
- U43C G55C — lower, 0.33
- U43C G55U — lower, 0.52
- A45C U51C — lower, 0.32
- A45C U51A — lower, 0.41
- A45C A75G — lower, 0.14
- A45C A75U — lower, 0.5
- U43C G52U — higher, 1.06
- U43C G52C — higher, 0.77
- U43C G52A — higher, 0.92
- C44U U54C — lower, 0.32
- C44U U54A — lower, 0.36
- U43A U78G — higher, 1.29
- U43A U78C — higher, 1.13
- U43A U78A — higher, 1.29
- U43C G53U — lower, 0.6
- U43C G53A — higher, 0.87
- U43C G53C — higher, 0.88
- C44A C68G — lower, 0.12
- C44U A65G — lower, 0.13
- U43A U58G — lower, 0.31
- U43A U58A — higher, 0.72
- U43C U72A — lower, 0.4
- U43C U72G — lower, 0.59
- U43C U72C — higher, 0.76
- C44G U76C — lower, 0.58
- U43C U48A — lower, 0.29
- U43C U48C — lower, 0.25
- U43A C44U — higher, 1.11
- U43A A57G — higher, 1.05
- U43A A57U — higher, 1.11
- U43A A57C — lower, 0.47
- U43C A57G — lower, 0.3
- U43C A57U — lower, 0.22
- A45C A57G — lower, 0.26
- C44U A56G — lower, 0.18
- U43A U66C — lower, 0.53
- U43A U66A — higher, 0.69
- U43A U72A — higher, 0.71
- U43A U72G — higher, 1.02
- U43A U72C — higher, 1.17
- C44G U49A — lower, 0.23
- C44G U49C — lower, 0.19
- U43G G53A — lower, 0.3
- C44A U60C — lower, 0.17
- U43A G63A — higher, 1.13
- U43A G63U — higher, 1.26
- U43G U80C — lower, 0.18
- U43C U49A — lower, 0.26
- U43C U49C — lower, 0.24
- U43C U49G — lower, 0.26
- U43G U51C — lower, 0.2
- C44A U66G — lower, 0.23
- U43A A47U — lower, 0.63
- U43A A47G — higher, 1.06
- C44U U76A — lower, 0.14
- C44U U76C — lower, 0.25
- U43C U51A — higher, 0.71
- U43C U51C — higher, 0.77
- U43C U51G — higher, 0.75
- C44U G52U — lower, 0.46
- C44U G55A — lower, 0.07
- C44U A47G — lower, 0.35
- C44G G63A — lower, 0.65
- A45C G55C — lower, 0.11
- U43A U67A — higher, 0.83
- U43A U67C — lower, 0.33
- U43C U69C — lower, 0.31
- U43C U69A — lower, 0.32
- U43C U69G — lower, 0.43
- C44U G61C — lower, 0.2
- U43C U80G — higher, 1.01
- U43C U80A — higher, 0.73
- U43C U80C — higher, 0.68
- U43A C62U — lower, 0.39
- C44U A75U — lower, 0.31
- C44G A65U — lower, 0.1
- A45C G73A — higher, 1.19
- U43A U74C — higher, 1.24
- U43A U74A — higher, 1.35
- U43G U72C — lower, 0.33
- U43G U72A — lower, 0.1
- U43G U72G — lower, 0.17
- U43A G53A — higher, 1.2
- A45C A65U — lower, 0.12
- A45C A65G — lower, 0.42
- U43C U67A — lower, 0.36
- U43C U67C — lower, 0.2
- U43G C44U — lower, 0.14
- U43C C50U — lower, 0.24
- U43C C50A — lower, 0.31
- U43A U48C — higher, 0.71
- U43C G46U — lower, 0.16
- U43C G46A — lower, 0.22
- U43C G46C — lower, 0.16
- U43A U54A — higher, 1.25
- U43A U54C — higher, 1.19
- U43G G70A — lower, 0.34
- C44G U72G — lower, 0.2
- C44G U72C — lower, 0.54
- A45C C68U — lower, 0.28
- U43A A65G — higher, 0.93
- U43A A65U — lower, 0.57
- U43G A45G — lower, 0.19
- U43G A45U — lower, 0.18
- C44A U76C — lower, 0.37
- C44U U74C — lower, 0.6
- U43G A47U — lower, 0.1
- C44U U67A — lower, 0.14
- C44U U67C — lower, 0.11
- U43G G46A — lower, 0.37
- C44A A75G — lower, 0.32
- U43G A77G — lower, 0.22
- U43A U76A — higher, 1.23
- U43A U76C — higher, 1.14
- A45C U54A — lower, 0.45
- A45C U54C — lower, 0.4
- U43C G61A — lower, 0.22
- U43A A45G — higher, 0.75
- U43A A45U — higher, 0.82
- U43A A45C — lower, 0.39
- U43C G70A — lower, 0.31
- U43C G70U — lower, 0.18
- U43C G70C — lower, 0.1
- U43C C62U — lower, 0.3
- U43C C62G — lower, 0.21
- U43C C62A — lower, 0.31
- C44A U80C — lower, 0.41
- C44U U60A — lower, 0.14
- C44U U60C — lower, 0.52
- U43C C59U — lower, 0.52
- U43C C59A — lower, 0.12
- U43A U80C — higher, 1.15
- U43A U80A — higher, 1.22
- U43G U60A — lower, 0.15
- U43G U60C — lower, 0.13
- U43A U69A — higher, 0.79
- U43A U69C — higher, 0.72
- U43A U69G — higher, 0.82
- C44U C79U — lower, 0.16
- U43C G63C — lower, 0.3
- U43C G63A — lower, 0.47
- U43G U67C — lower, 0.11
- C44A A64G — lower, 0.49
- C44A A64C — lower, 0.18
- C44U C62A — lower, 0.14
- U43A G52C — higher, 1.19
- U43A G52U — higher, 1.26
- U43A G52A — higher, 1.23
